Values quoted from earlier work, collected in publication PMC8910571.

Target: T1, PTK7 (tyrosine kinase 7 protein) (UniProt Q13308)
T1 sequence: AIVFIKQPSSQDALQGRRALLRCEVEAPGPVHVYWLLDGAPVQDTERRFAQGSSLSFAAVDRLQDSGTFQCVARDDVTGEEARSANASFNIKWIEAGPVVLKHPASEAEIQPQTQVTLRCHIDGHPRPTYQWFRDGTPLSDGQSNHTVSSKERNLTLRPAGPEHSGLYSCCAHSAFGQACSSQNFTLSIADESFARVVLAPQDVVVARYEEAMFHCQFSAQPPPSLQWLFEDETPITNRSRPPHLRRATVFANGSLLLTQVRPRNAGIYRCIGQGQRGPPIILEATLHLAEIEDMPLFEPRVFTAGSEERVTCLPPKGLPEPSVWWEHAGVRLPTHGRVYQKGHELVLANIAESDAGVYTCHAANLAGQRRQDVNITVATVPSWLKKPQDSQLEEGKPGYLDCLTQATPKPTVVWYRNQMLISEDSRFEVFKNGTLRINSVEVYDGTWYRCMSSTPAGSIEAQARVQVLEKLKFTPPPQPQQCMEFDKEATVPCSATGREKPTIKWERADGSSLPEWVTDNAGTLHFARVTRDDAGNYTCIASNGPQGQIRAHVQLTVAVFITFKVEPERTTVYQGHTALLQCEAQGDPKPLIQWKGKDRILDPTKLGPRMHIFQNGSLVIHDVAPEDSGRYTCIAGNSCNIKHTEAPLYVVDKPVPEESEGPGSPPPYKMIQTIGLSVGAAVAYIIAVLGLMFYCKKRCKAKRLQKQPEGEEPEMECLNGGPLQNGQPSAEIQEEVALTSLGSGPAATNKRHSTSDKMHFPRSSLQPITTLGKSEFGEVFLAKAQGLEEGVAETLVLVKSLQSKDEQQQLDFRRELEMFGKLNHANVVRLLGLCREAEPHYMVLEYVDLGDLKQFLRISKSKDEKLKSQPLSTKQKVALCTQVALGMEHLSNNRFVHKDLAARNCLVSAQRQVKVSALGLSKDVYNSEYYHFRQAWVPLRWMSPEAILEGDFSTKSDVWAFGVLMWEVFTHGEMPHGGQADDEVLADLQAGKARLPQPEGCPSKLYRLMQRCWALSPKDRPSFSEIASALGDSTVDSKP

Sequence: ATCTAACTGCTGCGCCGCCGGGAAAATACTGTACGGTTAGA [Sgc8-c]
- Kd: 0.78 nM
